Measured values: US20160031986A1

Experiments:
[1] = target: cynomolgus monkey DLL4 extracellular domain (cynomolgus monkey); assay: binding ELISA
[2] = target: cynomolgus monkey DLL4 extracellular domain (cynomolgus monkey); assay: Biacore SPR; head says nM, kd/ka gives M
[3] = target: cynomolgus monkey DLL4 extracellular domain (cynomolgus monkey); assay: Biacore SPR

Row | Binder | EC50 [1] [nM] | Kd [2] [nM] | koff [3] [s⁻¹] | kon [3] [M⁻¹ s⁻¹]
1 | 1A11 chimeric antibody (antibody, V domains shown) VH: EVQLVESGGGLVQPGRSMKLSCAASGFTFRNFPMAWVRQAPTRGLEWVATISSSDGTTYYRDSVKGRFTISRDNAKSTLYLQVNSLRSEDTATYYCSRGYYNSPFAYWGQGTLVTVSS VL: DIQMTQSPASLSASLGETVTIECRASEDIYSNLAWYQQKPGNSPQLLIFDTNNLADGVPSRFSGSGSGTQSSLKINSLQSEDVASYFCQQYNNYPPTFGGGTKLELKR | 0.33 |  |  | 
2 | h1A11.3 (antibody, V domains shown) VH: EVQLVESGGGLVQPGGSLRLSCAASGFTFSNFPMAWVRQAPGKGLEWVATISSSDGTTYYRDSVKGRFTISRDNAKNSLYLQMNSLRAEDTAVYYCARGYYNSPFAYWGQGTLVTVSS VL: DIQMTQSPSSLSASVGDRVTITCRASEDIYSNLAWYQQKPGKAPKLLIFDTNNLADGVPSRFSGSGSGTDFTLTISSLQPEDFATYYCQQYNNYPPTFGQGTKLEIKR | 0.16 |  |  | 
3 | h1A11.A11 (antibody, V domains shown) VH: EVQLVESGGGLVQPGGSLRLSCAASGFTFRHFPMAWVRQAPGKGLEWVATISSSDDWPNYRDSVKGRFTISRDNAKSSLYLQMNSLRAEDTAVYYCSRGYYNSPFAYWGQGTLVTVSS VL: DIQMTQSPSSLSASVGDRVTITCRASEDIYSNLAWYQQKPGKAPKLLIYDTNNLADGVPSRFSGSGSGTDFTLTISSLQPEDFATYYCQQYNNYPPTFGQGTKLEIK |  | 0.2 | 3.35e-05 | 170000
4 | h1A11.12 (antibody, V domains shown) VH: EVQLVESGGGLVQPGGSLRLSCAASGFTFSNFPMAWVRQAPGKGLEWVATISSSDGTTYYRDSVKGRFTISRDNAKNSLYLQMNSLRAEDTAVYYCSRGYYNSPFAYWGQGTLVTVSS VL: EIVMTQSPATLSVSPGERATLSCRASEDIYSNLAWYQQKPGQSPRLLIFDTNNLADGVPARFSGSGSGTESTLTISSLQSEDFAVYFCQQYNNYPPTFGQGTKLEIKR | 0.16 |  |  | 
5 | h1A11.13 (antibody, V domains shown) VH: EVQLVESGGGLVQPGGSLRLSCAASGFTFSNFPMAWVRQAPGKGLEWVATISSSDGTTYYRDSVKGRFTISRDNSKSTLYLQMNSLRAEDTAVYYCSRGYYNSPFAYWGQGTLVTVSS VL: DIQMTQSPSSLSASVGDRVTITCRASEDIYSNLAWYQQKPGKAPKLLIYDTNNLADGVPSRFSGSGSGTDFTLTISSLQPEDFATYYCQQYNNYPPTFGQGTKLEIKR | 0.16 |  |  | 
6 | h1A11.A6 (antibody, V domains shown) VH: EVQLVESGGGLVQPGGSLRLSCAASGFTFRHFPMAWVRQAPGKGLEWVATISSSDAWPSYRDSVKGRFTISRDNAKNSLYLQMNSLRAEDTAVYYCSRGYYNSPFAYWGQGTLVTVSS VL: DIQMTQSPSSLSASVGDRVTITCRASEDIYSNLAWYQQKPGKAPKLLIYDTNNLADGVPSRFSGSGSGTDFTLTISSLQPEDFATYYCQQYNNYPPTFGQGTKLEIK |  | 0.12 | 2.1e-05 | 171000
7 | h1A11.F5 (antibody, V domains shown) VH: EVQLVESGGGLVQPGGSLRLSCAASGFTFRHFPMAWVRQAPGKGLEWVATISSSDAWPSYRDSVKGRFTISRDNAKNSLYLQMNSLRAEDTAVYYCARGYYNSPFAYWGQGTLVTVSS VL: DIQMTQSPSSLSASVGDRVTITCRASQEIYRNLAWYQQKPGKSPKLLIFDTSVLADGVPSRFSGSGSGTDSTLTISSLQPEDFATYYCQQYTYYPPTFGQGTKLEIK |  | 0.17 | 2e-05 | 118000
8 | h1A11.5 (antibody, V domains shown) VH: EVQLVESGGGLVQPGGSLRLSCAASGFTFSNFPMAWVRQAPGKGLEWVATISSSDGTTYYRDSVKGRFTISRDNAKSSLYLQMNSLRAEDTAVYYCSRGYYNSPFAYWGQGTLVTVSS VL: DIQMTQSPSSLSASVGDRVTITCRASEDIYSNLAWYQQKPGKAPKLLIYDTNNLADGVPSRFSGSGSGTDFTLTISSLQPEDFATYYCQQYNNYPPTFGQGTKLEIKR | 0.16 |  |  | 
9 | h1A11.8 (antibody, V domains shown) VH: EVQLVESGGGLVQPGGSLRLSCAASGFTFSNFPMAWVRQAPGKGLEWVATISSSDGTTYYRDSVKGRFTISRDNAKSSLYLQMNSLRAEDTAVYYCSRGYYNSPFAYWGQGTLVTVSS VL: EIVMTQSPATLSVSPGERATLSCRASEDIYSNLAWYQQKPGQSPRLLIFDTNNLADGVPARFSGSGSGTESTLTISSLQSEDFAVYFCQQYNNYPPTFGQGTKLEIKR | 0.17 |  |  | 
10 | h1A11.4 (antibody, V domains shown) VH: EVQLVESGGGLVQPGGSLRLSCAASGFTFSNFPMAWVRQAPGKGLEWVATISSSDGTTYYRDSVKGRFTISRDNAKNSLYLQMNSLRAEDTAVYYCARGYYNSPFAYWGQGTLVTVSS VL: EIVMTQSPATLSVSPGERATLSCRASEDIYSNLAWYQQKPGQSPRLLIFDTNNLADGVPARFSGSGSGTESTLTISSLQSEDFAVYFCQQYNNYPPTFGQGTKLEIKR | 0.17 |  |  | 
11 | h1A11.G3 (antibody, V domains shown) VH: EVQLVESGGGLVQPGGSLRLSCAASGFTFRYFPMSWVRQAPGKGLEWVASISGSDGWASYRDSVKGRFTISRDNAKNSLYLQMNSLRAEDTAVYYCARGYYNSPFAYWGQGTLVTVSS VL: DIQMTQSPSSLSASVGDRVTITCRASQEIYRNLAWYQQKPGKSPKLLIFDTSVLADGVPSRFSGSGSGTDSTLTISSLQPEDFATYYCQQYTYYPPTFGQGTKLEIK |  | 0.17 | 1.73e-05 | 99000
12 | h1A11.A8 (antibody, V domains shown) VH: EVQLVESGGGLVQPGGSLRLSCAASGFTFGNFPMSWVRQAPGKGLEWVASISSSDSWATIGDSVKGRFTISRDNAKNSLYLQMNSLRAEDTAVYYCSRGYYNSPFAYWGQGTLVTVSS VL: DIQMTQSPSSLSASVGDRVTITCRASEDIYSNLAWYQQKPGKAPKLLIYDTNNLADGVPSRFSGSGSGTDFTLTISSLQPEDFATYYCQQYNNYPPTFGQGTKLEIK |  | 0.15 | 2.4e-05 | 160000
13 | h1A11.C6 (antibody, V domains shown) VH: EVQLVESGGGLVQPGGSLRLSCAASGFTFRNFPMAWVRQAPGKGLEWVATISSSDGWPTYRDSVKGRFTISRDNAKSSLYLQMNSLRAEDTAVYYCSRGYYNSPFAYWGQGTLVTVSS VL: DIQMTQSPSSLSASVGDRVTITCRASEDIYSNLAWYQQKPGKAPKLLIYDTNNLADGVPSRFSGSGSGTDFTLTISSLQPEDFATYYCQQYNNYPPTFGQGTKLEIK |  | 0.18 | 3.12e-05 | 171000

More lines, in order of falling EC50 [1], values ahead:

Row | EC50 [1] [nM] | Kd [2] [nM] | koff [3] [s⁻¹] | kon [3] [M⁻¹ s⁻¹] | Binder
14 | 0.15 |  |  |  | h1A11.10 (antibody, V domains shown) VH: EVQLVESGGGLVQPGGSLRLSCAASGFTFSNFPMAWVRQAPGKGLEWVATISSSDGTTYYRDSVKGRFTISRDNAKNSLYLQMNSLRAEDTAVYYCSRGYYNSPFAYWGQGTLVTVSS VL: DIQMTQSPSSLSASVGDRVTITCRASEDIYSNLAWYQQKPGKSPKLLIFDTNNLADGVPSRFSGSGSGTDSTLTISSLQPEDFATYFCQQYNNYPPTFGQGTKLEIKR
15 | 0.15 |  |  |  | h1A11.11 (antibody, V domains shown) VH: EVQLVESGGGLVQPGGSLRLSCAASGFTFSNFPMAWVRQAPGKGLEWVATISSSDGTTYYRDSVKGRFTISRDNAKNSLYLQMNSLRAEDTAVYYCSRGYYNSPFAYWGQGTLVTVSS VL: DIQMTQSPSSLSASVGDRVTITCRASEDIYSNLAWYQQKPGKAPKLLIFDTNNLADGVPSRFSGSGSGTDFTLTISSLQPEDFATYYCQQYNNYPPTFGQGTKLEIKR
16 | 0.15 |  |  |  | h1A11.9 (antibody, V domains shown) VH: EVQLVESGGGLVQPGGSLRLSCAASGFTFSNFPMAWVRQAPGKGLEWVATISSSDGTTYYRDSVKGRFTISRDNAKNSLYLQMNSLRAEDTAVYYCSRGYYNSPFAYWGQGTLVTVSS VL: DIQMTQSPSSLSASVGDRVTITCRASEDIYSNLAWYQQKPGKAPKLLIYDTNNLADGVPSRFSGSGSGTDFTLTISSLQPEDFATYYCQQYNNYPPTFGQGTKLEIKR
17 | 0.14 |  |  |  | h1A11.14 (antibody, V domains shown) VH: EVQLVESGGGLVQPGGSLRLSCAASGFTFSNFPMAWVRQAPGKGLEWVATISSSDGTTYYRDSVKGRFTISRDNSKSTLYLQMNSLRAEDTAVYYCSRGYYNSPFAYWGQGTLVTVSS VL: DIQMTQSPSSLSASVGDRVTITCRASEDIYSNLAWYQQKPGKSPKLLIFDTNNLADGVPSRFSGSGSGTDSTLTISSLQPEDFATYFCQQYNNYPPTFGQGTKLEIKR
18 | 0.14 |  |  |  | h1A11.7 (antibody, V domains shown) VH: EVQLVESGGGLVQPGGSLRLSCAASGFTFSNFPMAWVRQAPGKGLEWVATISSSDGTTYYRDSVKGRFTISRDNAKSSLYLQMNSLRAEDTAVYYCSRGYYNSPFAYWGQGTLVTVSS VL: DIQMTQSPSSLSASVGDRVTITCRASEDIYSNLAWYQQKPGKAPKLLIFDTNNLADGVPSRFSGSGSGTDFTLTISSLQPEDFATYYCQQYNNYPPTFGQGTKLEIKR
19 | 0.13 |  |  |  | h1A11.15 (antibody, V domains shown) VH: EVQLVESGGGLVQPGGSLRLSCAASGFTFSNFPMAWVRQAPGKGLEWVATISSSDGTTYYRDSVKGRFTISRDNSKSTLYLQMNSLRAEDTAVYYCSRGYYNSPFAYWGQGTLVTVSS VL: DIQMTQSPSSLSASVGDRVTITCRASEDIYSNLAWYQQKPGKAPKLLIFDTNNLADGVPSRFSGSGSGTDFTLTISSLQPEDFATYYCQQYNNYPPTFGQGTKLEIKR
20 | 0.13 |  |  |  | h1A11.6 (antibody, V domains shown) VH: EVQLVESGGGLVQPGGSLRLSCAASGFTFSNFPMAWVRQAPGKGLEWVATISSSDGTTYYRDSVKGRFTISRDNAKSSLYLQMNSLRAEDTAVYYCSRGYYNSPFAYWGQGTLVTVSS VL: DIQMTQSPSSLSASVGDRVTITCRASEDIYSNLAWYQQKPGKSPKLLIFDTNNLADGVPSRFSGSGSGTDSTLTISSLQPEDFATYFCQQYNNYPPTFGQGTKLEIKR
21 | 0.12 |  |  |  | h1A11.16 (antibody, V domains shown) VH: EVQLVESGGGLVQPGGSLRLSCAASGFTFSNFPMAWVRQAPGKGLEWVATISSSDGTTYYRDSVKGRFTISRDNSKSTLYLQMNSLRAEDTAVYYCSRGYYNSPFAYWGQGTLVTVSS VL: EIVMTQSPATLSVSPGERATLSCRASEDIYSNLAWYQQKPGQSPRLLIFDTNNLADGVPARFSGSGSGTESTLTISSLQSEDFAVYFCQQYNNYPPTFGQGTKLEIKR
